# Data as given in the nanobody polyreactivity screen of Harvey et al. (2022).
# Experiment: yeast display, Sf9 membrane polyspecificity reagent, FACS + sequencing; frameworks hold sequencing errors
# Summary of the method: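 Synthetic nanobody libraries on Saccharomyces cerevisiae BJ5465 were galactose-induced for 36–48 hours, stained 1 hour at 4 °C with 10% biotinylated, detergent-solubilized Sf9 membrane reagent and enriched on streptavidin microbeads. FACS then separated cells into low and high (top ~1%) gates by anti-HA (expression) and streptavidin (reagent binding) fluorescence. Genes were colony-PCR amplified, MiSeq 2 × 250 sequenced and CDR-length filtered. A clone's polyreactivity label is that of its gate of origin.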
row,Sequence,polyreactivity (PSR sort gate)
1,QVQLVESGGGLVQAGGILRLSCAASGSIFVGNAMGGYRQAPGKERELVATISWSGGSTYYADSVKGRFTISRDNAKNTVYLQMNCLKPEDSAVYYCAKTPYRRYRYGGYTYRTYDYWGQGTQVTVSS,low polyreactivity
2,QVQLVESGGGLVQAGGILRLSCAASGSIVTDNAMGWYRQAPGKERELVAAITSSGNTNYADSVKGRFTISRDNAKNTVYLQINSLKPEDTAVYYCAADSYYKHWTDWLPVGEDYWGQGTQVTVSS,low polyreactivity
3,QVQLVESGGGLVQAGGILRLSCAASGSTFTGYAMGWYRQAPGKERELVAAISSSGGRTYYAASVKGRFTISRDNANNTVYLQMNSLKPEVTAVYYCATDHYRYGGYSWGQGTEVTVSS,high polyreactivity
4,QVQLVESGGGLVQAGGILRLSCAASGSTFVRYVMVWYRQAPGKERELVAAISRRGGSTYYADSVKGRFTISRDNAKNTVYLQMNSLKPEDTAVNYCARTVGYRTLLESDSWGQGTQVTVSS,high polyreactivity
5,QVQLVESGGGLVQAGGILRLSCAASGSTFYSYAMGWYRQAPGKERELVAYIDWSGGYTYYADSVKGRFTISRDNAKNTVYLQMNSLKPEDTAVYYCNAERGATGYYVTGDDYWGQGTQVTVSS,low polyreactivity
6,QVQLVESGGGLVQAGGILRLSCASSGRIFTFYAMGWYRQAPGKERELVAAISSGGSTYYADSVKGLFTISRDNAKNTVYLQMNSLKPEDTAVYYCAAEPVWYADYDYWGQGTQVTVSS,low polyreactivity
7,QVQLVESGGGLVQAGGILRLSCPASGSIIVFYAMGWYRQAPGKEREIVATITWSGTSTYYADSVKGRFTISRDYAKNTVYLQKNSLKPEDTAVYYCNARTVKASYVGYNYWGQGTQVTVSS,high polyreactivity
8,QVQLVESGGGLVQAGGILRLSCSASGYISKVYVMGWYRQAPGKERELVAAITNGGRTNYADSVKGRFTISRDNAKNTVYLQMNSLKPEDTAVYYCAARPRWHIRYNYWGQGTQVTVSS,high polyreactivity
9,QVQLVESGGGLVQAGGILRLSFAASGFISLDYAMGWYRQAPGKERELVAAISNGGGTNYADSVKGRFTISRDNAKNTVYLQMNSLKPEDTAVYYCNASVSYGYEYDSWGQGTQVTVSS,low polyreactivity
10,QVQLVESGGGLVQAGGILRLSSAASGFTFGYYAMGWYRQAPGTQRELVAAINWSGGRTYYADSVKGRFTISRDNAKNTVYLQMNSLKPEDTAVYYCAADPKKGRQMYYWGQGTQVTVSS,high polyreactivity
11,QVQLVESGGGLVQAGGILRLTCAASGRTFYKNAMGWYRQAPGKERELVAAIDWIDGNTYYADSVKGRFTISRDNAKNTVYLQMNSLKPEDTAVYYCAAEGYDLGDYWGQGTQVTVSS,low polyreactivity
12,QVQLVESGGGLVQAGGILSLSCAASGNTFKGNAMGWYRQAPGKERELVAAISWSTDSTYYADSVKGRFTISRDNAKNSVYLQMNSLKPEDTAIYYCAADYSHLPIAWYYYWGQGTQVTVSS,low polyreactivity
13,QVQLVESGGGLVQAGGMLRLSCAASGRIFGVNAMGWYRQAPGKERELVAVISSGGSTYYADSVKGRFTISRDNAKNTVYVQMNSLKPEDTAVYYCNAVVGRWFPYNLSDYWGQGTQVTVSS,low polyreactivity
14,QVQLVESGGGLVQAGGNLRLSCAASGFIFTRNAMGWYRQAPGKERELVAAISTSGDRTYYADSVKGRFTISRDNAKNTVYLQMNSLKPEDTAVYYCAVVRPRYVVRYDYWGQGTQVNVSS,high polyreactivity
15,QVQLVESGGGLVQAGGRHRLSCAPSGSIFRFYVMGWYIQAPGKERELVAAISIGGSTNYADSVKGRFTISRDNAKNTVYLQMNSLKPEDSAVYYCAADGPTYWWTTQWYWGDYWGQGTQVTVSS,low polyreactivity
16,QVQLVESGGGLVQAGGRLRFSCADSGITFLRYAIGWSRQAPGKERELVAGISYTGGSTNYADSVKGRFTISRDNAKNTVYLQMNSLKPEDSSVYYCAAQGYRWYDYWGQGTQVTVSS,high polyreactivity
17,QVQLVESGGGLVQAGGRLRFTCAASGAIFHNYDMGGYRQATGKERQLVADISRGGDTNYADSVKGRFTISRDNAKNTVYLEMNSMKPEDTAVYYCNATYWILDSPWWRETFDYWGQGSQVTVSS,low polyreactivity
18,QVQLVESGGGLVQAGGRLRISCAASGRTFGRYTMGWYRQAPGKERELVASISNTARTNYADSVKGRFTISRDNAKNTVYLQMNSLKPEDTAVYYCAAERAILSSDKQSLWRFDYWGQGTQVTVSS,low polyreactivity
19,QVQLVESGGGLVQAGGRLRLICAASGRTFTPYAMGWYRQAPGKERELVAAITRGGSTYYADSVKGRFTISRDNAKNTVYLHMNSLKPEDTAVYYCNALVSYYKLSSEYDYWGQGTQVTVSS,high polyreactivity
20,QVQLVESGGGLVQAGGRLRLRCAASGSIFSPNAMGWYRQAPGKERELVATISFSGGRTYYADSVKGRFTISRDNAKNSVYLQMNSLKPEDTAVYYCAKAYYYTDMDYWGQGTQVTVSS,low polyreactivity
21,QVQLVESGGGLVQAGGRLRLSCAASGATFYVYAMGWYRQAPGKERELVATIDSTDGDTYADSVKGRCTISRDNAKKTVYLQMNSLKPEDTAGYDCAATDLNIYYGYYDSWYWYELDYWGQGTQVTVSS,high polyreactivity
22,QVQLVESGGGLVQAGGRLRLSCAASGFIFVRNAMGWYRQAPGKERELVAAISRGGGRTYYADSVKGRFTISRDNAKNTVYLQINRLKPEDTAVYYCNTQSVGVQFVKDNYWGQGTQVTVSS,high polyreactivity
